Test [1] concerns the target human carbonic anhydrase XII, catalytic domain (human).
Test [2] shares this target. The test can be described thus: other fluorescence titration.

Where two headings read alike, the source gives them in different places.

What is called Kd is the equilibrium constant for the complex coming apart. A low value points to a tighter complex. As for polylysine (peptide), the equilibrium dissociation constant (Kd) amounted to 3.3 µM in test [1] and 6 µM in test [2].

(Values after paper PMC3181075.)
